Assay results as given in the nanobody polyreactivity screen of Harvey et al. (2022).

Test: yeast display, Sf9 membrane polyspecificity reagent, FACS + sequencing; frameworks hold sequencing errors
Outline: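 Polyreactivity labels are assigned by the sorting gate from which each nanobody was recovered. The gates were low and high (top ~1%), set on anti-HA fluorescence for expression and streptavidin fluorescence for reagent binding. Before sorting, galactose-induced (36–48 hours) yeast display cells were stained for 1 hour at 4 °C with 10% biotinylated, detergent-solubilized Sf9 membrane reagent.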

Row | Sequence | polyreactivity (PSR sort gate)
1 | QVQLVESGVGLVQAGGSLRLSCAASGRIFVKYAMGWYRQAPGQEREFVAAITQGGGRTFYADSVKGRFTSSRDNAKNTVYLQMNSLKPEDTAVYYCAATGRGYGRRYFVVYRYDYWGQGTQVTVSS | high polyreactivity
2 | QVQLVESGGGLVQAGGSLRLSCAASGFTFNYYAMGWYRQATGKERELVAAIDSGGNTYYADSVKGRFTISRDNAKNNVYLLLNSLKPEDTAVYYCDAYSDYQYDYWGQGTQVTVSS | low polyreactivity
3 | QVQLVESGGGLVQAGGSLRLSCAASGRTIDYNGMGWYRQAPGKERELVAVISTSGGSTFYADSVKGRFTISRDNAKKTVYLQMNSLKPEDTAVYYCAADFIVAYTLHGSYDYWGQGTQVTVSS | low polyreactivity
4 | QVQLVESGGGLVQAGGSLRLSCAASGSTFTYNAMGWYRQAPGTERELVAAISDGDGRTYYADSVKGRFTISRDNAKNTVYLQMNSLKPEDTAVYYCAAVDYAADYPYRNTEVYYWGQGTQVTVSS | low polyreactivity
5 | QVQLVESVGGLVQAGGSLRLSCAASGITFDKYAMGWYRQATVKERELVAAISGSDGSTYYADSVKGRFTISRDNAKNNVYLQMNSLKPEDTAVYYCAAESEYAGTYEYDYWGQGTQVTVSS | low polyreactivity
6 | QVQLVESGGGLVQAGGSLRLSCAASGFIFPIYAMGWYRQAPGKERELVAAITSNGASTYYADSVKGRFTISRDNAKNTVYLQMNSLKPEDTAVYYCARDPSIRALEHDYWGQGTKVTVSS | high polyreactivity
7 | QVQLVESGGGLVHAGGSLRLSCASSGRIFQYNTMGWYRQAPGKERELVAGISSGGSTNYADSVKGRFTISRDNAKNTVYLQMNSLKPEDTAVYYCAARAKRYNVRFDYWGQGTQVTVSS | high polyreactivity
8 | QVQLVESGGGLVQAGGSLRLSCAASGFTLGSNAMGWYRQAPGKERELVAAISWDGGRTYYADSVKGRFTISRDNAKNTVYLQMNSLKPEDTAVYYCNRASYLRGTAGGDYWGQGTQVTVSS | high polyreactivity
9 | QVQLVESGGGLVQAGGSLRLSCAASGRIFIVYAMGWYRQAPGKERELVATISWSGGSTYYADSVKGRFTISRDNAKNTVYLQMTSLKPEDTAVYYCAADYRWVDSDSSLFYWYDYWGQGTQVTVSS | high polyreactivity
10 | QVQLVESGGGILQAGGSLRLSCAASGFISSVNAMGWYRQATGKERELVAAISDSATSTYYADSVKGRFTISRDNAKNTVYLQMNSLKPVDTALYYCAAYSHYVGYEYWGQGTQVTVSS | high polyreactivity
11 | QVELVESGGGLVQAGGSLRLSCAASGFTFDRYAMGWYRQAPGTERELVAALTRRGTTTYYADSVKGRFTISRDNAKNTVYLQMNSLKPEDTAVYYCAAKRGSVSRPDYGANDESWGQGTQVTVSS | high polyreactivity
12 | QVQLVESGGGLVQAGGSLRLSCAASGRTFGPYAMGWYRQAPGKERELVAAITDTGSGTYYADSVKGRFTISRDNAKNTVYIQMNSLKPEDTAVFYCNANYLSWYRYKYNYWGQGTQVTVSS | low polyreactivity
13 | QVQLVESGGGLVQAGGSLRLSCAASGLIFAEYAMGWYRQAPGKERELVARITSGGSTDYADSVKGRFTISRDNAKNTVYLQMNSLKPEDTALYYCAARYYSQDNNASTASDFDYWGQGTQVTVSS | low polyreactivity
14 | QVQLVESGGGLVQAGGSLRLSCASSGSIFYYTEIGWYRQAPGKERELVAAISWGDGITYYADSVKGRFTISRDYAKNTVSLLMNSLKPEDTAFYYCAVDYYYLPFDYWGQGTQGTVSS | high polyreactivity
15 | QVQLVESGGGLVQAGGSLRLSCAASGRIFRRYAMGWYRQAPGKEREFVAAISYGGGSTYYADSVKGRFTISRDNAKYTVSLQMNSLTPEDTAVYYCNADVPKSLLLYYPWGYGYWGQGTQVTVSS | low polyreactivity
16 | QVQLVESGGGLVQAGGSLRLICAASGLTFFSYAMGWYRQATGKEREFVAAITRRGGRTYYADSVKGRFTISRENANNTVYLQMNSLKPEDTAVYYCNAVPVLISVYRMEYWGQGTQVNVSS | high polyreactivity
17 | QVQLEDSGRGLFQAGGSLRLSCAASGSIVALYTMGWYRQAPGKEREFVAGIRTGGSTIYADSVKGRFTISRDNAKNTVYLQMNSRKPEDTPVYYDDWGQGTQVTVSS | low polyreactivity
18 | QVQLVESGGGLVQAGGSLRLSCAASGSTFVYYAMGWSRQAPGKERELVASIRTGGTTNYADSVKGRFTISRDNAKNTVYLQMNSLKPEDTAVYYCNKDTRPTDTTVSLYYWSAWRDYWGQGTQVTVSS | low polyreactivity
19 | QVQLVESGGGLVQAGGSLRLSCAASGFTFSVYAMGWYRQAPGKERELVATITDSGSTNYADSVKGRFTISRDNAKNTVYLQMNSLKPEDTAVYYCNADFRRYVTYHYYRAVIHHDYWGQGTQVTVSS | high polyreactivity
20 | QVQLVESGGGLVQAGGSLRLSCAASGSIFLENTMGWYRQAPGKERELVAAITSSGDSTYADSVKGRFTISRDNAKNTVYLQMNSLKPEDTAVYYCNKDYDDIAPTRAVLDRYDYWGQGTQVTVSS | low polyreactivity
21 | QVQLVESGGGLVQAGGSLRLSCAASGRTFYRNAMGWSRPAPGKERELVAAISSDDSTNYADSVKGRFTISRDNAKNTVYLQMNSLKPEDTAVYYCNADYYYGYEYDYWGQGTQVTVSS | low polyreactivity
22 | QVQLVESGGGLVQAGGSLRLSCAASGFTIDKNVMGWYRQAPGKERELVAAISVRGGTTYYADSVKGRFTISRDNAKNTVYLQMNSLKPEDTAVYYCAARAYGPPARYDSWGQGTQVTVSS | low polyreactivity

Row | Sequence | polyreactivity (PSR sort gate)
23 | QVQLVESGGGLVQAGGSLRLSCAASGRTFTYYAMGWYRQAPGKERELVAAISNGGRTYYADSVKGRFTISRDNAKNTVYLQMNSLKPEDTAVYYSAAYLSPKGRGFGSWGQGTQVTVSS | high polyreactivity
24 | QVQLVESGGGLVQAGGSLRLSCAASGRIIGNYAMGWYRQAPGKERELVAAISNGGSTNYADSVKGRFTISRDNAKNTVYLQMNSLKPEDTAVYYCNADQWAVIWGYMVLDFYYWGQGTQVTVSS | low polyreactivity
25 | QVQLVESGGGLVQAGGSLRLSCAASGSIFGDNAMGWYRQAPGKERELVATISSSDASTYYADSVKGRFTISRDNAKNTVYLQMNSLKPEDTSVYYCAAARSGGYDYWGQGTQVTVSS | low polyreactivity
26 | QVQHVESGGGLVQAGGSLRLSCAASGSIFITYAMGWYRQAPGKERELVAAIRDSGDRTYYADSVKGRFTISRDNAKNTVYLQMNSLKPEDTAVYYCNARWQEPQKYDYWGQGTQVTVSS | low polyreactivity
27 | QVQLVESGGGLVQAGGSLRLSCAASGFTFGRYAMGWYRPAPGKERELVPAISFSGGRTYYADSVKGRFTISRDNAKNTVYLQMNCMKPEDTAVYYCAARRSEEHVGRSTYARYDYWGQGTQVTVSS | high polyreactivity
28 | QDQLEESGGGLVQAGGSLRLSCASSGRIFAGYAMGWYRQAPGKERELVAAISGSGGSTYYADSVKGRFTISRDNAKNTVYLQMNSLKPEDTAVFYCNAGKTSRFQYDYWGQGTQVTVSS | high polyreactivity
29 | QVQLEESGGGLVQSGGSLRLSCAASGRTFSGYAMGSYRQAPGKERELVSAISFSGGSTYYADSVKGRFTISRDNAMNTVYLQMNSLIPEDTAVYYCNAYSWYNGIGNYDYWGQGTQVTVSS | low polyreactivity
30 | QVQLVESGGGLVQAGGSLLLSCAASGSIFSAYAMGWDRQAPGKERQLVAGISKRGGSTYYADSVKGRFTISRDNAKNTVYLQMNSLKPEDTAVYYCNAARYPYARAVTYHYPSYGYWGQGTQVTVSS | high polyreactivity
31 | QVQLVESGGGLVQAGGSLRLSCAASGRIFGDNAMGWYRQAPGKEREFVAAISWSGGTTYYADSVKGRFTISRDNAKNTVYLQMNSLKPEDTAVYYCAADYTRGYDYWGQGTQVTVSS | low polyreactivity
32 | QVQLVESGGGLVQAGGSLRLSCAASGITFVWNAMGWYRQAPGKERELVATISRGGVRTYYADSVKGRFTISRDNAKNTVYLQMNSLKPEDTAVYYCNVDETGVLVAYSFDYWGQGTQVTVSS | low polyreactivity
33 | QVQLVESGGGLVQAGGSLRLSCAASGFIFDINAMGWYRQAPGTERELVADIRGGGSTYYADSVKGRFTISRDNAKNTVYVQMNSLKPEDTAVYYCNALDSYRHRPFDYWGQGTQVTVSS | low polyreactivity
34 | QVQLVESGGGLVQAGGSLRLSCAASGRNFFTYAMGWYRQAPGKERELVAAIDRSGTSTNYADSVKGRFTISRDNANNTVYLHMHSLKPEDTAVYYCAARPNPYYDEMDYWGQGTQVTVSS | low polyreactivity
35 | QVQLVESGGGLVQAGGSLRLSCAASGRTFSYYTMGWYRQAPGKERELVARISNRGTNTYYADSVKGRFTISRDNAKNTVYLQMNSLKPEDTAVYYCNAAFSVRHLYRYDYWGQGTQVTVSL | low polyreactivity
36 | QVKLVESGGGLVQAGGRLRLSCDAYGIILVGYDMGWYRPAPGKERELVATISSGSSTYYEDSVKGRFTISRDNAKNTVYLQMNSLKPEDTAVYYCNADHAGPYWRFHDDDYWGQGTKVTVSS | low polyreactivity
37 | QVQLVESGGGLVQAGGSLRLSCAASGIIFGVYAMGWYRQAPGKERELVAAIDGNGSSTYYADSVKGRFTISRDNAKNSVYLQMNSLKPEDTAVYYCNKDVARYPYGKFDYWGQGTQVTVSS | low polyreactivity
38 | QVQLVESGGGLVQAGGSLRFSCAASGFIFVRYAMGWYRQAPGKERELVAAISGSGGRTYYADSVKGRFTISRDNAKNTVYLQMTSLKPEDTAVYYCNGTSYTYGYLPYDYWGQGTQVTVSS | high polyreactivity
39 | QVQLVESGGGLVQAGGSLRLSCAASGSTFARYAMGWYRQAPGKERELVAGISRGGRTYYADSVMGRFTISRDYAKNTVYLQMNSLKPVDTAVYYCAKRYVTLYNSQYNYWGQGTQVTVSS | high polyreactivity
40 | QVQLVESGGGLVQAGGSLRLSCAASGITFGFYTMGWYRQAPGKERELVAAITSGGSTSYADSVKGRFTISRDNAKNTVYLQMNSLKPEDTAVYYCAADYLNPFPPYQYWKQSYDYWGQGTQVTVSS | low polyreactivity
41 | QVQLVESGRGLVQAGGSLRLSCAASGIIFYENAMGWYRQAPGKERELVADITQSGGSTYYADSVKGRFTISRDNAKNTVYLQMNSLKPEDTAVYYCAADGYDPYGGLYDYWGQGTQVTVSS | low polyreactivity
42 | QVQLVESGGRLVQAGGSLRLSCAASGRTFTAYTMGGYRQAPGKERELVASNSSGVTYADSVKGRFTISRDNAKNTVYLQMNSLKPEDTAVYYCAARLWYVQGYVPYVHHRFDYWGQGTQVTVSS | low polyreactivity
43 | QVQLVESGGGLVQAGGSLRLSCAASGRTFGLNVMGWYRQAPGKERELVATISWSGGTTYYADSVKGRFTISRDYAKNTVYLQMNSLKPEDTAVYYCNRQVTWYPTGGFWGQGTQVTVSS | low polyreactivity
